Laboratory results published in article doi:10.1101/2025.02.10.637573 (bioRxiv, 2025).

How the values were obtained:
[1] = target: Vps74 (endogenous, wild-type yeast cells) (Saccharomyces cerevisiae (strain ATCC …, UniProt Q06385)); assay: co-IP
Twin-Strep-Vps74 = Twin-Strep-Vps74 (yeast, UniProt Q06385); assay: pull-down
[2] = target: Vps74 (bacterially expressed, as used in the in vitro mixing assays) (yeast, UniProt Q06385); assay: pull-down
Sequence of Vps74 (bacterially expressed, as used in the in vitro mixing assays) (Q06385 whole entry): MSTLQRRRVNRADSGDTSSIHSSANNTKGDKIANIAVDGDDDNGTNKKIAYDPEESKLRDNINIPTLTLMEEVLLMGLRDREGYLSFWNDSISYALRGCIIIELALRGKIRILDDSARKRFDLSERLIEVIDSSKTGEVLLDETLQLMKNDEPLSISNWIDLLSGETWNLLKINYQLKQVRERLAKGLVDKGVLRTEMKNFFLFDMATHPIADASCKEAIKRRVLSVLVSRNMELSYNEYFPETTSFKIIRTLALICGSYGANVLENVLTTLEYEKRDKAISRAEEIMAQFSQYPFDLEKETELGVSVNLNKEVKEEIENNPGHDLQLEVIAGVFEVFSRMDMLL

Sequence of Twin-Strep-Vps74 (Q06385 whole entry): as above
Sequence of Vps74 (endogenous, wild-type yeast cells) (Saccharomyces cerevisiae (Q06385 whole entry): as above

B1: Vps74InNb#4-HA (expressed in the cytoplasm of yeast cells) (VHH)
VHH: QVQLQESGGGLVQAGGSLRLSCAASGSISTIVGMGWYRQAPGKERELVAAITGGSSTNYADSVKGRFTISRDNAKNTVYLQMNSLKPEDTAVYYCAAVSYEYRSSPYPETYWGQGTQVTVSS
binding result [1]: binds

B2: Vps74InNb#4 (purified from the periplasm of E. coli) (VHH)
VHH: B1 VHH
binding result (Twin-Strep-Vps74): binds
binding result [2]: binds
